Experimental data taken from article PMC5127641 (2016).

T1: Bcl-w, biotinylated (C-terminal avi-6His) (human, UniProt Q92843 1-193, biotin (enzymatic, BirA))
T1 chain: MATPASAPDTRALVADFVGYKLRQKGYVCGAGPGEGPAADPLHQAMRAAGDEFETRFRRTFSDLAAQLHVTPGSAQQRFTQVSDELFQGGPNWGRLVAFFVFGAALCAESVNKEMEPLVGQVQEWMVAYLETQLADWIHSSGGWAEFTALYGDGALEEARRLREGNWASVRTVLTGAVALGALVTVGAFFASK

T2: Mcl-1, biotinylated (C-terminal avi-6His) (human, UniProt Q07820 1-350, biotin (enzymatic, BirA))
T2 chain: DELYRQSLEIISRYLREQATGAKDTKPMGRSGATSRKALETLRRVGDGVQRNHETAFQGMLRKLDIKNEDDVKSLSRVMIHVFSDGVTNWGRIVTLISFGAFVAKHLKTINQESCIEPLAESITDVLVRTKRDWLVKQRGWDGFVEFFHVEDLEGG

T3: Bfl-1, biotinylated (C-terminal avi-6His) (human, UniProt Q16548 1-175, biotin (enzymatic, BirA))
T3 chain: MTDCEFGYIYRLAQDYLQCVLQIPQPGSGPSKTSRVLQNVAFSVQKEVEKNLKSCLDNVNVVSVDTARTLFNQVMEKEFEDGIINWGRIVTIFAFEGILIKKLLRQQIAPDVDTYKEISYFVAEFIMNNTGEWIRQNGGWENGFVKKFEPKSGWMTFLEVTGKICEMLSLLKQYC

T4: Bcl-B, biotinylated (C-terminal avi-6His) (human, UniProt Q9HD36 1-204, biotin (enzymatic, BirA))
T4 chain: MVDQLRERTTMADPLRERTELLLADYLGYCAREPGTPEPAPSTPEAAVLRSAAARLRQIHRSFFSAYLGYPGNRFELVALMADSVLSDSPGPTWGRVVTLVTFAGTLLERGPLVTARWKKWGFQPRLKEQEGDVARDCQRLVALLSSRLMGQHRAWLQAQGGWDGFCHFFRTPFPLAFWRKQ


Experiments:
Test in all cases: BLI
[1] = molecular target: T1, Bcl-w, biotinylated (C-terminal …)
[2] = molecular target: T2, Mcl-1, biotinylated (C-terminal …)
[3] = molecular target: T3, Bfl-1, biotinylated (C-terminal …)
[4] = molecular target: Bcl-xL, biotinylated (C-terminal avi-6His) (human, UniProt Q07817-1 1-233, biotin (enzymatic, BirA))
[5] = molecular target: T4, Bcl-B, biotinylated (C-terminal …)
[6] = molecular target: Bcl-2, biotinylated (C-terminal avi-6His) (human, UniProt P10415 1-239, biotin (enzymatic, BirA))
Chain of Bcl-2, biotinylated (C-terminal avi-6His) (P10415 1-207): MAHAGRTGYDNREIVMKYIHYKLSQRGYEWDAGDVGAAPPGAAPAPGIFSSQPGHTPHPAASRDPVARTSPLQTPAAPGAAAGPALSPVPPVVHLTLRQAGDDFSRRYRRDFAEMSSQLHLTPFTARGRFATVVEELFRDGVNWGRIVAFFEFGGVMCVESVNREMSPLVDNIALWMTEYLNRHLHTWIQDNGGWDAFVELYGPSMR

Chain of Bcl-xL, biotinylated (C-terminal avi-6His) (Q07817 1-209): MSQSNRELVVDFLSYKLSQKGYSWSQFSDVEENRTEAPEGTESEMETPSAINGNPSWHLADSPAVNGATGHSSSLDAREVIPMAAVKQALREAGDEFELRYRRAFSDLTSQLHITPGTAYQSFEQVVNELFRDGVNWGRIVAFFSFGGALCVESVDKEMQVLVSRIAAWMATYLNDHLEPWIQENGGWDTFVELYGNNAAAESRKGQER

Binder | Kd [1] | Kd [2] | Kd [3] | Kd [4] | Kd [5] | Kd [6]
2-CDP06 (Bcl-2-targeting Computationally Designed Protein) (designed binder) MADPKKVLDKAKDEAENRVRELKQKLEELYKEARKLDLTQEMRQELVDKARAASLQAIGDIFYAILRALAEAEKLKKAGLVNSQQLDELKRRLEELAEEARRKAEKLGDEFRLKLEYG | 1700 nM | > 50000 nM | > 50000 nM | 12000 nM | > 50000 nM | 9 nM
F-ECM04 (enriched combinatorial mutant of F-CDP01) (designed binder) ADPKKVLDKAKDQAENRVRELKQKLEELYKEARKLDLTQEMRKKLEVAALGAVLAAHGDILNAIMQAKEEADKLKKAGLVNSQQLDELKRRLEELKEEALRKASDYGKEFHLKRRY | 3800 nM | 300 nM | 1.1 nM | 540 nM | 4000 nM | 
W-CDP03 (Bcl-w-targeting computationally designed protein) (designed binder) ADPKKVFDEAKDRAENNVRRLKQKLEELYKEARKKDLTQEEREKLKEKYKTAMAAAALAAIGDAFNALLKARKLHKNGQVNEQQLEELARRLQELAKEAFQKAKDYANEFEYKLEY | 8 nM | 57 nM | 500 nM | 7 nM | 410 nM | 30 nM
F-CDP01 (Bfl-1-targeting computationally designed protein) (designed binder) ADPKKVLDKAKDQAENRVRELKQKLEELYKEARKLDLTQEMRKKLQYAAIGAMLAAIGDILNAIMQAKQEADKLKKAGLVNSQQLDELKRRLEELKEEALRKAHDYGSEFYLKLEY |  | 4.6 nM | 2 nM | 11 nM | 100000 nM | 
B-ECM01 (enriched combinatorial mutant of B-CDP01) (designed binder) ADPKKILDKAKDQVENRVRELKQELERLYKEARKLDLTQEMRRKLHVRYIAAMLKAIAAILNAIAQAENEADKLKKAGLVNSQQLDELRRRLEELTEEAAQKAHDYGREFQLKLEY |  |  | 2400 nM | 7800 nM | 80 nM | 
B-CDP01 (Bcl-B-targeting computationally designed protein) (designed binder) ADPKKVLDKAKDQAENRVRELKQELERLYKEARKLDLTQEMRRKLEWRYIAAMLKAIGDILNAIAQAENEADKLKKAGLVNSQQLDELRRRLEELAKEAARKAHDYGREFQLKLEY | 2000 nM | 0.46 nM | 520 nM | 20 nM | 8 nM | 17 nM
X-CDP07 (Bcl-xL-targeting computationally designed protein) (designed binder) ADPKKVLDKAKDRAENVVRKLKKELEELYKEARKLDLTQEMRDRIRLAAIAARIAAFGDIFHAIMEALEEARKLKKAGLVNSQQLDELKRRLEELDEEAAQRAEKLGKEFELKLEY |  |  | > 50000 nM |  |  | 4 nM
